This passage reports koff and Kd results from publication PMC10999626, “Kinetic modeling of the plasma pharmacokinetic profiles of ADAMTS13 fragment and its Fc-fusion counterpart in mice” (Frontiers in Pharmacology, 2024).

For experiment [1], the target named is T1, biotinylated mouse FcRn protein (mouse, UniProt Q61559 22-297, biotin (biotinylated; site not stated)).
T1 construct: neonatal Fc receptor (FcRn), mouse; also called mouse neonatal Fc-receptor; source: bought: Acro Biosystems
T1 sequence (looked up): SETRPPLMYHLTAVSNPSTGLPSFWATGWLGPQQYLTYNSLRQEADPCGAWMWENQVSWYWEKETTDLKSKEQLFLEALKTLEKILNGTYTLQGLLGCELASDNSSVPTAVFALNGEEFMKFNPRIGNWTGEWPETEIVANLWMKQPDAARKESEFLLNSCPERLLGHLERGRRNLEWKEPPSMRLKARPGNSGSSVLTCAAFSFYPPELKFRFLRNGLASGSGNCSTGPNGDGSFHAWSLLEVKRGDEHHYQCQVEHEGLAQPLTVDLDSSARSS
Description: BLI; biotinylated mouse FcRn (1.0 ug/mL) immobilised on streptavidin biosensor tip; MDTCS-Fc 0.625 to 20 nM in solution; 25 mM acetate, 25 mM NaH2PO4, 150 mM NaCl, 0.01% Tween-20, pH 6.0; association 5 min, dissociation 5 min; Octet Qke; biosensors without FcRn subtracted. As to conditions: both partners purified. On the technique in general: In BLI a coated tip is dipped into the sample, and binding shifts an interference pattern.

Experiment [2] addresses T1, biotinylated mouse FcRn protein. The experiment is described as above. As to conditions: both partners purified. This is another data set of the same source.

B1: MDTCS-Fc (Fc fusion)
chain: AAGGILHLELLVAVGPDVFQAHQEDTERYVLTNLNIGAELLRDPSLGAQFRVHLVKMVILTEPEGAPNITANLTSSLLSVCGWSQTINPEDDTDPGHADLVLYITRFDLELPDGNRQVRGVTQLGGACSPTWSCLITEDTGFDLGVTIAHEIGHSFGLEHDGAPGSGCGPSGHVMASDGAAPRAGLAWSPCSRRQLLSLLSAGRARCVWDPPRPQPGSAGHPPDAQPGLYYSANEQCRVAFGPKAVACTFAREHLDMCQALSCHTDPLDQSSCSRLLVPLLDGTECGVEKWCSKGRCRSLVELTPIAAVHGRWSSWGPRSPCSRSCGGGVVTRRRQCNNPRPAFGGRACVGADLQAEMCNTQACEKTQLEFMSQQCARTDGQPLRSSPGGASFYHWGAAVPHSQGDALCRHMCRAIGESFIMKRGDSFLDGTRCMPSGPREDGTLSLCVSGSCRTFGCDGRMDSQQVWDRCQVCGGDNSTCSPRKGSFTAGRAREYVTFLTVTPNLTSVYIANHRPLFTHLAVRIGGRYVVAGKMSISPNTTYPSLLEDGRVEYRVALTEDRLPRLEEIRIWGPLQEDADIQVYRRYGEEYGNLTRPDITFTYFQPKPRQAEPKSCDKTHTCPPCPAPEFLGGPSVFLFPPKPKDTLYITREPEVTCVVVDVSQEDPEVQFNWYVDGVEVHNAKTKPREEQFNSTYRVVSVLTVLHQDWLNGKEYKCKVSNKGLPSSIEKTISKAKGQPREPQVYTLPPSQEEMTKNQVSLTCLVKGFYPSDIAVEWESNGQPENNYKTTPPVLDSDGSFFLYSRLTVDKSRWQEGNVFSCSVMHEALHNHYTQKSLSLSL
Broadly, the koff is a measure of how fast the partners let go of each other. A higher koff goes with a short-lived complex. For orientation: Kd means the constant that tells how readily two partners part at equilibrium. Low readings indicate a tighter complex, high ones a looser complex. B1: the koff in experiment [1] stood at 1.96e-06 s⁻¹. Also, in experiment [2], the dissociation constant (Kd) was determined as 0.144 ± 0.022 nM.
